Reference: the nanobody polyreactivity screen of Harvey et al. (2022)

Test: yeast display, Sf9 membrane polyspecificity reagent, FACS + sequencing; frameworks hold sequencing errors
Summary of the method: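 A nanobody's polyreactivity label depends on the gate it was sorted from. Yeast display cells were stained with 10% biotinylated, detergent-solubilized Sf9 membrane reagent for 1 hour at 4 °C, enriched on streptavidin microbeads and sorted by FACS. The low and high (top ~1%) gates were set on anti-HA fluorescence for expression and streptavidin fluorescence for reagent binding.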

Row | Sequence | polyreactivity (PSR sort gate)
1 | QVQLQESGGGLVQAGGSLLSCAASGTISYYREMGWYRQAPGKERELVAGIGVGTITYYADSVKGRFTISRDNAKHTVYLQMNSLKPEDTAVYYCAAAYQEYDYHYYYWGQGTQVTVSS | low polyreactivity
2 | QVQLQESGGGLVQAGGSLPLSCAASGTISVHATMGWYRQATGKERELVAGITDGANTYYADSVKGRFTISRDNSQNTVYLQMNSLTPEDTAVYYCAAYYGTVVHFTYWGQGTQVTVSS | low polyreactivity
3 | QVQLQESGGGLVQAGGSLRCAASGNISTRSEMGWYRQAPGKEREFVATINSGGITNYADSVKGRFTISRDNAKNTVYLRMNCLKPEDTAVYYRAVYGYFSDPYDYWGQGTQVTVSS | low polyreactivity
4 | QVQLQESGGGLVQAGGSLRLICAASGTIFRFRYMGWHRQAPGKERELVAGINGGTTTYYADSVIGRFTISRDNAKNTVYVQMNSLKPDDTAVYNCAAGASRLTYYDYWGHGTQVTVSS | low polyreactivity
5 | QVQLQESGGGLVQAGGSLRLSCAACGNIFKYTNMGSYRQAPGKERELVATISDGASTNYADSVKGRFTISRDNAINTVYLQMNSLKPEDTAVYYCNAEGYVRFNYWGQCTQVTVSS | high polyreactivity
6 | QVQLQESGGGLVQAGGSLRLSCAASCTISQEDWMGWYRQAPGKELEFVAAIGLGSNTNYADSLKGRFTISRDNAKNTVYLQMNSLKPEDTAVYYCAVSVWQYSDHVYRGQGTQVTVSS | low polyreactivity
7 | QVQLQESGGGLVQAGGSLRLSCAASGCISVYTPMGWYRQAPGKERVLVAGINICANTYYADSVKGRFTISRDNAKNTLYLQMNSLKPEDTAVYYCAARRRPGGRYKSRVWYDYWGQGTQVTVSS | high polyreactivity
8 | QVQLQESGGGLVQAGGSLRLSCAASGIIVDADIMGWYRQAPGQERDLVASITDGGRTNYADSVKGRFTISRDNAKNTVYLQMNSLKPEDTAVYYCAAIAYPDIPTYFDYDSEYFYCGQGTQVTVSS | low polyreactivity
9 | QVQLQESGGGLVQAGGSLRLSCAASGNIFLSIFMGWYRQAPGKEREFVAGIGSGTNTNYADSVKGRFTISRDNAKNTVYLQMNSLKAEDTAGYYSAAGRYGLYYHGYWGQGTQVTVSS | high polyreactivity
10 | QVQLQESGGGLVQAGGSLRLSCAASGNISVTGIMGWYRQAPGKERELVASIGIGGTTYYADSVNGRFSISRDNAKNTVYLQMISLKPEDTALYYLAARYLYYAYSYWGQGTQVTVSS | low polyreactivity
11 | QVQLQESGGGLVQAGGSLRLSCAASGNISYRTHMGWYRQAPGKERELVASIGGGTTNYADSVKGRFTISRDNAKNTVYLQMNSLKPEDTAVYYCAVVGTTQFRHRYWGQGTQVTASS | high polyreactivity
12 | QVQLQESGGGLVQAGGSLRLSCAASGNIVDADIMGWYRQAPGKEREIVASITDGGSTNYADSLKGRFTISRDNAKNTVYQQMNSLIPEDTAVYYCAAIAYPDIPPYFDYDSDYFDWGQGTQETVSS | high polyreactivity
13 | QVQLQESGGGLVQAGGSLRLSCAASGNIVDADIMGWYRQAPGKERELVASITDGGSTNYADSVKGRFTISRDNAKNTVYLQMNSLKPVDTAVYNCAAIAYPDIPTYFDYDSEYFYWGQGTQVTVSS | low polyreactivity
14 | QVQLQESGGGLVQAGGSLRLSCAASGPISRRSTMGWYRQAPGKERELVTAITRGTNTNYADSVKGRFTISRDNAKNTESLQMNSLKPEDTAVYYGAAYGVLKPSRGDAVFHRYWGQGTQVTVSS | low polyreactivity
15 | QVQLQESGGGLVQAGGSLRLSCAASGPISRRSTMGWYRQAPGKERELVTAITRGTNTNYADSVKGRFTISRDNAKNTEYLQMNSLKPEDTAVFYCAAYGVLKPSRGDAVFHRYWGQGTQVTVSS | low polyreactivity
16 | QVQLQESGGGLVQAGGSLRLSCAASGSIFDGFNMGWYRQAPGKERECVAAISYGASTYYADSVKGRFTGSRDNAKNSVYLQMNSLKPEDTAVYYCAVYDELYHVLVYWGRGTQVTVSS | low polyreactivity
17 | QVQLQESGGGLVQAGGSLRLSCAASGSIFHLHIMSWYRHAPGKERESVAAISYGTSTYYADSVKCRFTICRDNAKNTVYLQINIPKPDDTAVYYCAALFLVSKHHHYWGEGTQVTVSS | low polyreactivity
